{
  "source": "patent US9801923B2",
  "about": "“Fusion proteins containing insulin-like growth factor-1 and epidermal growth factor and variants thereof and uses thereof” (IGF Oncology, LLC, priority 2014, dated 2017)",
  "key": {"L929 cells": {"test_system": "L929 cells", "test": "765TNFa activity assay, killing of L929 cells", "assay_type": "cell-based", "conditions": "24 hours", "protocol": "L929 cells were plated at 10,000 cells per well in two 96-well plates in their recommended growth medium with 2% fetal bovine serum. They were grown for 2 days at 37° C. in a 5% CO2 humidified atmosphere. In one plate, after the 2 days incubation 1 ug/ml final concentration actinomycin D was added; in the other plate no actinomycin D was added. 765TNFa was then added at a range of concentrations. Plates were incubated 24 hours more. Then cell viability was quantified with DOJINDO cell counting kit-8 according to manufacturer's instructions. […] These are even lower IC50s than are reported in the literature for TNF-alpha."}, "MCF-7 tumor cells [1]": {"test_system": "MCF-7 tumor cells", "test": "in vitro cytotoxicity assay, inhibition of proliferation of MCF-7 tumor cells", "assay_type": "cell-based", "conditions": "Homo sapiens, MCF7, read-out: IC50 (concentration needed for 50% inhibition of cell proliferation)", "procedure": "Five-thousand MCF7 cells were plated per well in a 96-well test plate in 100 ul of rich media on day 0. A shadow plate was made for each test plate, with each well of the shadow plate containing media or 3× the intended final concentration of test agent in media in each well. As a negative control, media is used. […] After making the shadow plate, 50 ul is transferred from each well of the shadow plate to the corresponding well of the test plate to generate the final concentrations of test agent in the wells of the test plate. Cell proliferation is determined by adding Dojindo CCK-8 reagent and incubating and measuring absorbance of the dye according to the manufacturer's instructions."}, "[2]": {"test_system": "A-431 human epithelial carcinoma cells", "test": "in vitro proliferation inhibition of A-431 cells", "assay_type": "cell-based", "conditions": "4 days with drug", "protocol": "A-431 human epithelial carcinoma cells were seeded at 5,000 cells per well in 96-well plates and grown for 1 day. A-431 cells have abundant EGF receptors. After 1 day growth, free bendamustine and 765EGF-bendamustine were added to the plate at concentrations ranging from 200 micromolar bendamstine to 6 nM and from 20 microEq/L 765EGF-bendamustine down to 0.6 nM. The plates were incubated with drug at 37 degrees C. under a humidified 5% CO2 atmosphere for 4 days, and then DOJINDO cell counting kit-8 reagent was added to wells to read proliferation. The plates were read according to manufacturer's instruction. There was a huge difference between free bendamustine and EGF-bendamustine. […] The difference in effectiveness was more than 1000-fold expressed in terms of the concentration of bendamustine groups."}, "[3]": {"assay_type": "physicochemical", "excerpt": "These smaller fragments are seen on SDS-PAGE."}, "IGF receptors": {"target": "IGF receptors (Homo sapiens, UniProt P08069)", "sequence (P08069 31-736 limits assumed)": "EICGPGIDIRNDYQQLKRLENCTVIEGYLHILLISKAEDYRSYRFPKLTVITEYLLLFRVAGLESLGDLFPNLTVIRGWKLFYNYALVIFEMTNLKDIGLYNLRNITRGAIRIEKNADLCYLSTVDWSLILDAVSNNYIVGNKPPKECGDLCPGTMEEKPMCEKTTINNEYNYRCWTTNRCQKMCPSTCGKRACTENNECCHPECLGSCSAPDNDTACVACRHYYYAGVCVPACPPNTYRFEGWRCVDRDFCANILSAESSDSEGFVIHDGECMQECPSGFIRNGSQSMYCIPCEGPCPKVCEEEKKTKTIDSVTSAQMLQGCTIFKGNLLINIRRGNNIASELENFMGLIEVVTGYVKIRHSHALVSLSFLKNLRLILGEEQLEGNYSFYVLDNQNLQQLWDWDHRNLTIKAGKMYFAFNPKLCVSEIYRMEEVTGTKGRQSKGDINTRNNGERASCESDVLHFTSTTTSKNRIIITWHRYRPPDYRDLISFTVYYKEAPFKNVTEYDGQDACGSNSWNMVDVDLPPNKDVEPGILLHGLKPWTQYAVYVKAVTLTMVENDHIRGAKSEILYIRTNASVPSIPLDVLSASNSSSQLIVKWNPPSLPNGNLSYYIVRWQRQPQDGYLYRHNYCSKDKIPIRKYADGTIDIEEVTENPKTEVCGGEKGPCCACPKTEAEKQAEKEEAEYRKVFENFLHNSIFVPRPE", "sequence (P08069 741-1367 partner limits assumed)": "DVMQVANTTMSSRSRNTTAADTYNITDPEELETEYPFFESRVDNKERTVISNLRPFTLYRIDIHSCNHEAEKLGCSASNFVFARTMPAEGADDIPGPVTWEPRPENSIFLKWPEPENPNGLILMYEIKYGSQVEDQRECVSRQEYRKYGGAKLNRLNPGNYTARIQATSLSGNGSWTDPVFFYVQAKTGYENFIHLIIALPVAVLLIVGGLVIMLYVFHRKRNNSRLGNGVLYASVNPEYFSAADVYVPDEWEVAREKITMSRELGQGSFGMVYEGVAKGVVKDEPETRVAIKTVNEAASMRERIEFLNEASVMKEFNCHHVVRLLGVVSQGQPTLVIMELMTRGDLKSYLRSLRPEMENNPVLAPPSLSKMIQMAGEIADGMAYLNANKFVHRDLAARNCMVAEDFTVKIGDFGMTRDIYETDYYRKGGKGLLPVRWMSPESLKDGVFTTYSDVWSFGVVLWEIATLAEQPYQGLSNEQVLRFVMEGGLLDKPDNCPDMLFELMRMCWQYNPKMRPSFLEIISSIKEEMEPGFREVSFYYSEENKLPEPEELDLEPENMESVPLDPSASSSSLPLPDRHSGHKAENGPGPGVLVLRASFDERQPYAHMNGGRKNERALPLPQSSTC", "test": "competition binding of refolded IGF fusion proteins to IGF receptors against radioactive wild type IGF", "conditions": "Ni eluates refolded 3 hours at room temperature, read-out: approximate binding constants (KDs)", "protocol": "2 ml of each of the original Ni eluates from Example 1 was mixed with about an equal volume of 100 mM glycine, 6 M urea, pH 9.5, concentrated by ultrafiltration in a CENTRICON 3 kDa filter unit, then brought up again in that buffer and concentrated to about 420 ul. Then they were diluted to 2 mg/ml for 403IGF, 764IGF, and 765IGF, and 4 mg/ml for 784IGF and 2.4 mg/ml for 785IGF.\n200 ul of each of these was mixed rapidly with 1.8 ml of refold buffer. Refold buffer was 1.4 M urea, 100 mM glycine, 0.5 M NaCl, 19% ethanol, 0.5 mM GSSG, 4 mM GSH, pH 9.5. They were refolded at room temperature for 3 hours, and then tested in a binding assay for competition binding to IGF receptors against […] radioactive wild type IGF (Perkin Elmer, Inc.) For comparison, commercial Long-R3-IGF (LR3IGF) was also tested."}, "[4]": {"target": "T1, type 1 IGF receptors on MCF7 cells (Homo sapiens, UniProt P08069)", "T1 construct": "type 1 IGF receptors that are abundant on MCF7 cells; host or cells: MCF7", "T1 sequence (P08069 31-736 limits assumed)": "as the sequence (P08069 31-736 limits assumed) above", "T1 sequence (P08069 741-1367 partner limits assumed)": "as the sequence (P08069 741-1367 partner limits assumed) above", "test": "765IGF binding assay to IGF-1 receptor on MCF7 cells (125I IGF-1 competition)", "conditions": "overnight at 4° C.", "protocol": "Theory of assay: Radioactive ^125I labeled insulin-like growth factor-1 (IGF-1) competes with a test ligand for binding to type 1 IGF receptors that are abundant on MCF7 cells (a human breast cancer cell line) in vitro.\nMCF7 cell media: 500 mL MEM, 0.01 mg/mL bovine insulin; 5 mL sodium pyruvate, 5 mL non-essential amino acids, 10 mL sodium bicarbonate, 10 mL fetal bovine serum, 5 mL penicillin/streptomycin.\nMCF7 cells (ATCC HTB-22) were plated at 20,000 cells per well in a volume of 0.5 mL/well in a 48-well tissue culture plate (flat bottom with low evaporation lid) and placed in a cell culture incubator set at 37° C. with 5% CO2. After 2-3 days in culture the plates were washed 2× with 0.5 mL per well of cold binding assay buffer (100 mM Hepes-NaOH, pH 7.2; 120 mM NaCl; 5 mM KCl; 1.2 mM MgSO4; 0.1% BSA). After the final wash, 0.5 mL of binding assay buffer was added to each well and the plates are placed at 4° C. for 2 to 6 hours.\nTest ligands were prepared at a concentration of 10 micromolar (long-R3-IGF) or 20 micromolar (765IGF and IGF-MTX) in 5 mM HCl in a volume of 200 ul. To determine the concentration, the molecular weight of 765IGF (9742 daltons) and long-R3-IGF (9111 daltons) are used. […]\nThe plates were then incubated overnight at 4° C. […] Cells were lysed with 0.5 mL 300 mM NaOH, 1% SDS and the lysates were counted on a gamma counter."}, "[5]": {"target": "T2, dihydrofolate reductase (DHFR) (Homo sapiens, UniProt P00374)", "T2 construct": "purchased Sigma-Aldrich", "T2 sequence (P00374 1-187)": "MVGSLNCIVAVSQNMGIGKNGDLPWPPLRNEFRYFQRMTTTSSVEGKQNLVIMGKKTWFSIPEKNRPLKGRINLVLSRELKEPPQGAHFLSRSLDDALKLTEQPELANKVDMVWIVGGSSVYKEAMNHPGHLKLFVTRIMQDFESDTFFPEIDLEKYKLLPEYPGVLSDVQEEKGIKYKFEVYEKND", "test": "inhibition of dihydrofolate reductase (Sigma-Aldrich assay kit)", "assay_type": "biochemical", "protocol": "The experiments were done with the dihydrofolate reductase assay kit from Sigma-Aldrich (St. Louis, Mo., USA), according to the manufacturer's instructions. In the assay dihydrofolate reductase is mixed with pH 7.5 buffer. […] It was incubated for 30 seconds to allow inhibitor binding. Then NADPH is added to 50 uM final concentration, and then dihydrofolic acid is added to 60 uM final concentration. The reaction is monitored by measuring absorbance at 340 nm."}, "MCF-7 tumor cells [6]": {"test_system": "MCF-7 tumor cells", "conditions": "for comparison, McTavish et al., 2009; cited from earlier work"}},
  "note": "Like-named read-outs stand apart in the source and are kept apart here.",
  "data": [
    {"molecule": "765TNFa: soluble form of tumor necrosis factor alpha fused to SEQ ID NO:1 leader, SEQ ID NO:17", "values": [
      {"measurement": "IC50 for killing the cells", "setting": "L929 cells; L929 cells with 1 ug/ml actinomycin", "value": "less than 79 pg/ml"},
      {"measurement": "IC50 for killing the cells", "setting": "L929 cells; L929 cells with no actinomycin", "value": "about 70 ng/ml"}
    ]},
    {"molecule": "CN(Cc1cnc2nc(N)nc(N)c2n1)c1ccc(C(=O)N[C@@H](CCC(=O)O)C(=O)O)cc1", "note": "[Methotrexate, methotrexate]", "values": [
      {"measurement": "IC50", "setting": "MCF-7 tumor cells [1]", "value": 88, "unit": "nM"}
    ]},
    {"molecule": "Cn1c(CCCC(=O)O)nc2cc(N(CCCl)CCCl)ccc21", "note": "[bendamustine]", "values": [
      {"measurement": "concentration above which proliferation was inhibited", "setting": "[2]", "value": "above 10 micromolar"},
      {"measurement": "IC50", "setting": "[2]; Homo sapiens, 96 h", "value": "~90000", "unit": "nM"}
    ]},
    {"molecule": "IGF132: variant of IGF-1 with reduced binding to soluble IGF binding proteins, SEQ ID NO:4 (protein) FVNQHLCGSHLVEALYLVCGDRGFYFNKPTGYGSSSRRAPQTGIVDECCFRSCDLRRLEMYCAPLKPAKSA", "values": [
      {"measurement": "stability to storage", "setting": "[3]", "value": "breaks down to produce a significant amount of smaller molecular weight fragments"}
    ]},
    {"molecule": "403IGF: His6-IGF fusion protein, SEQ ID NO: 14 (protein) MTSGHHHHHHSAGVNGFVNQHLCGSHLVEALYLVCGDRGFYFNKPTGYGSSSRRAPQTGIVDECCFRSCDLRRLEMYCAPLKPAKSA", "values": [
      {"measurement": "Kd", "setting": "IGF receptors", "value": "~2", "unit": "nM"}
    ]},
    {"molecule": "785IGF: mutTrx-IGF132 fusion protein, SEQ ID NO: 16 (protein) MVKQIESKTAFQEALDAAGDKLVVVDFSATWCGHCKMIKPFFHSLSEKYSNVIFLEVDVDDSQDVASESEVKSMPTFQFFKKGQKVGEFSGANKEKLEATINELVGSKSGHHHHHHSAKGFVNQHLCGSHLVEALYLVCGDRGFYFNKPTGYGSSSRRAPQTGIVDECCFRSCDLRRLEMYCAPLKPAKSA", "values": [
      {"measurement": "Kd", "setting": "IGF receptors", "value": "~40", "unit": "nM"}
    ]},
    {"molecule": "LR3IGF: commercial Long-R3-IGF variant of IGF-1 (Sigma Aldrich), SEQ ID NO:5 (protein) MFPAMPLSSLFVNGPRTLCGALVDALQFVCGDRGFYFNKPTGYGSSSRRAPQTGIVDECCFRSCDLRRLEMYCAPLKPAKSEA", "values": [
      {"measurement": "Kd", "setting": "[4]", "value": "~3", "unit": "nM"},
      {"measurement": "Kd", "setting": "IGF receptors", "value": "~1", "unit": "nM"}
    ]},
    {"molecule": "LR3IGF-MTX (conjugate) MFPAMPLSSLFVNGPRTLCGALVDALQFVCGDRGFYFNKPTGYGSSSRRAPQTGIVDECCFRSCDLRRLEMYCAPLKPAKSEA", "values": [
      {"measurement": "IC50", "setting": "[5]; DHFR, concentration of conjugated MTX groups, read-out: IC50", "value": 99, "unit": "nM"},
      {"measurement": "IC50", "setting": "[5]; IC50 in nEq/L divided by MTX per IGF, read-out: inhibition constant in terms of protein concentration", "value": 35, "unit": "nM"},
      {"measurement": "IC50", "setting": "MCF-7 tumor cells [6]", "value": "~400", "unit": "nM"}
    ]},
    {"molecule": "764IGF: His6-K5-IGF132 fusion protein, SEQ ID NO: 18 (protein) MVKGKHHHHHHNGKGKSKFVNQHLCGSHLVEALYLVCGDRGFYFNKPTGYGSSSRRAPQTGIVDECCFRSCDLRRLEMYCAPLKPAKSA", "values": [
      {"measurement": "Kd", "setting": "IGF receptors", "value": "~100", "unit": "nM"}
    ]}
  ]
}
